Results taken from patent publication US20240182897.

Tested on: T1, pegylated peptide-linked C12-miR (P.5-L-C12-miR)
T1 sequence: KGDGG

## lysosomal enzyme Cathepsin D (Cat. No. C8696, Sigma-Aldrich)
  enzyme cleavage in vitro, size reduction on 15% acrylamide/8 M urea gel: the pegylated peptide-linked C12-miR (P.5-L-C12-miR) was cleaved by lysosomal cathepsin D and resulted in a smaller fragment
